According to paper PMC9614721, “Polyvalent Glycan Quantum Dots as a Multifunctional Tool for Revealing Thermodynamic, Kinetic, and Structural Details of Multivalent Lectin–Glycan Interactions” (ACS Applied Materials & Interfaces, 2022):

B1: DC-SIGN, soluble extracellular segment, Q274C, labeled with Atto-594 (domain or fragment, UniProt Q9NNX6 59-404, looked up)
chain: QVSKVPSSISQEQSRQDAIYQNLTQLKAAVGELSEKSKLQEIYQELTQLKAAVGELPEKSKLQEIYQELTRLKAAVGELPEKSKLQEIYQELTWLKAAVGELPEKSKMQEIYQELTRLKAAVGELPEKSKQQEIYQELTRLKAAVGELPEKSKQQEIYQELTRLKAAVGELPEKSKQQEIYQELTQLKAAVERLCHPCPWEWTFFQGNCYFMSNSCRNWHDSITACKEVGAQLVVIKSAEEQNFLQLQSSRSNRFTWMGLSDLNQEGTWQWVDGSPLLPSFKQYWNRGEPNNVGEEDCAEFSGNGWNDDKCNLAKFWICKKSAASCSRDEEQFLSPAPATPNPPPA
modifications: maleimide-modified Atto-594 dye on the cysteine introduced at Q274 (labeling efficiency ~85% per monomer)
notes: DC-SIGN, soluble extracellular segment; also called dendritic-cell-specific intercellular adhesion molecule-3-grabbing nonintegrin; source: expressed, purified
B2: DC-SIGNR, soluble extracellular segment, R287C, labeled with Atto-594 (domain or fragment, UniProt Q9H2X3 71-399, looked up)
chain: QVSKVPSSLSQEQSEQDAIYQNLTQLKAAVGELSEKSKLQEIYQELTQLKAAVGELPEKSKLQEIYQELTRLKAAVGELPEKSKLQEIYQELTRLKAAVGELPEKSKLQEIYQELTRLKAAVGELPEKSKLQEIYQELTELKAAVGELPEKSKLQEIYQELTQLKAAVGELPDQSKQQQIYQELTDLKTAFERLCRHCPKDWTFFQGNCYFMSNSQCNWHDSVTACQEVRAQLVVIKTAEEQNFLQLQTSRSNRFSWMGLSDLNQEGTWQWVDGSPLSPSFQRYWNSGEPNNSGNEDCAEFSGSGWNDNRCDVDNYWICKKPAACFRDE
modifications: maleimide-modified Atto-594 dye on the cysteine introduced at R287 (labeling efficiency ~85% per monomer)
notes: DC-SIGNR, soluble extracellular segment; also called a DC-SIGN related lectin found on endothelial cells; source: expressed, purified

Legend:
[1] = biological target: DC-SIGN with its C-terminal 16 amino acids truncated, soluble extracellular segment, Q274C, labeled with Atto-594 (UniProt Q9NNX6); assay: dynamic light scattering; purified lectins in solution; hydrodynamic diameters ~14 nm; identity also checked by HRMS and UV-vis spectroscopy
[2] = biological target: the molecule itself; assay: as above

Row | Molecule | stoichiometry N [1] | stoichiometry N [2]
1 | DC-SIGN with its C-terminal 16 amino acids truncated, soluble extracellular segment, Q274C, labeled with Atto-594 (from UniProt Q9NNX6 59-404) (domain or fragment) | 4 | –
2 | B1 | – | 4
3 | B2 | – | 4
